Holding throughout (type): in vivo, mouse
For one assay, the system named is MIA offspring. Nature of the assay: Three-chamber social approach assay in PBS and MIA offspring. To be noted: for sociability phenotype after IL-17a into S1DZ: MIA offspring, IL-17a 50 ng/side bilaterally into S1DZ, 4 hours, no LPS. As for the experimental part:
Adult male mice were assayed for sociability using a three-chamber social approach assay. The arena was constructed of white acrylic (50 cm×35 cm×30 cm). Wire cups (Spectrum Diversified®) were placed in the back left and right corner of the arena beneath water-filled 1 L bottles (Nalgene®). On Day 0, mice were habituated to the arena for 10 min. Immediately following habituation, mice were singly housed. On Day 1 (Pre), mice were placed in the center of the arena and allowed to freely explore. Following 10 min, mice were confined to the center of the arena. An inanimate object (rubber stopper) or a male conspecific were placed beneath the wire cups. Placement of the inanimate object and social target were alternated. Mice were then allowed to freely explore the arena for 10 min. Interaction time was defined as time spent in the areas circumscribing the wire cups (<2 cm). Sociability was defined as interaction time with the social target divided by total interaction time and expressed as a percentage. For experiments involving LPS injections, mice were injected with LPS ([…], i.p., L2630, Sigma) on Day 2 (Test), four hours prior to testing. […]
Adult male mice were implanted with cannula into S1DZ and allowed to recover for >2 weeks prior to behavioral experiments. On Day 1 (Pre) mice were assayed for sociability. On Day 2 (Test), mice were anesthetized briefly using isoflurane and either vehicle or IL-17a (50 ng/side in 1 μl at a rate of 180 nl/min, 7956-ML/CF, R&D®) was administered bilaterally into S1DZ through 250 μm-projecting injector tips (PlasticsOne®). Four hours after vehicle or IL-17a administration, mice were assayed for sociability. Cannula placements were verified using histology.
(§1) Adult male mice were assayed for sociability using a three-chamber social approach assay. The arena was constructed of white acrylic (50 cm×35 cm×30 cm). Wire cups (Spectrum Diversified®) were placed in the back left and right corner of the arena beneath water-filled 1 L bottles (Nalgene®). On day 0, mice were habituated to the arena for 10 min. Immediately following habituation, mice were singly housed. On day 1 (Pre), mice were placed in the center of the arena and allowed to freely explore. Following 10 min, mice were confined to the center of the arena. An inanimate object (rubber stopper) or a male conspecific were placed beneath the wire cups. Placement of the inanimate object and social target were alternated. Mice were then allowed to freely explore the arena for 10 min. Interaction time was defined as time spent in the areas circumscribing the wire cups (<2 cm). Sociability was defined as interaction time with the social target divided by total interaction time and expressed as a percentage. For experiments involving LPS injections, mice were injected with either saline (Veh) or LPS ([…], i.p., L2630, Sigma) on day 2 (Test), four hours prior to testing. For the experiment assaying sociability 72 hrs following LPS injection, mice used for 4 hr LPS sociability experiments were tested for sociability again at 72 hrs.
Adult male Vgat-Cre MIA offspring were bilaterally injected with virus encoding the inhibitory DREADD receptor fused to mCherry into the vLPO. Following >3 weeks of recovery, mice were assayed on the three-chamber social approach assay outlined above. Baseline sociability was assayed on day 1 (Pre). On day 2 and day 3, mice were injected with either Saline (Veh) or CNO (1.5 mg/kg i.p., BML-NS105, Enzo Life Sciences®), two hours prior to initiation of behavior. Injection order was counterbalanced. Following behavioral experiments, post-mortem histology was used to confirm mCherry expression within the vLPO. For experiments assaying the effect of CNO and LPS injection in Vgat-Cre PBS and MIA offspring that have not undergone surgery, baseline sociability was assessed on day 1. On day 2 and 3 mice received counterbalanced injections of CNO or vehicle. On day 4, mice were injected with LPS. […]

For another assay, the system named is IL-17a, IFNγ, IL-6, TNFα. Nature of the assay: ELISA of cytokines in plasma and brain lysate. To be noted: LPS-injected MIA offspring; antibiotic by oral gavage. As for the experimental part:
Mice were put under general anesthesia by intraperitoneal injection of Ketamine (100 mg/kg, i.p.) and xylazine (10 mg/kg, i.p.). Blood was collected by retro-orbital puncture, using clean heparinized microhematocrit capillary tubes (Fisher Scientific®). Once the tube was withdrawn, slight pressure was applied on the eyelid with gauze to prevent further bleeding. All blood samples were centrifuged at 15,000 g for 3 min at room temperature. For quantification of cytokines in brain lysate, samples were disrupted in cold lysis buffer with protease inhibitor cocktail for 60 seconds using the Micro-Homogenizer (VWR International) and centrifuged for 30 min at 15,000×g to remove insoluble precipitates. All samples were stored at −80° C. until further analysis. Plasma and brain lysate cytokines concentrations were measured using an ELISA kit (Biolgened™), following the manufacturer's instructions.
After four hours of vehicle or LPS administration, mice were anesthetized by intraperitoneal injection of fatal plus (100 mg/kg). All blood samples were centrifuged at 10,000 g for 10 min at 4 C. All samples were stored at −80° C. until further analysis. Cytokines concentrations in plasma were measured using an ELISA kit (IFN-γ; 430804, TNF-α; 430904, IL-6; 431304, IL-17a; 432504, Biolegend®), following the manufacturer's instructions.
Background: An ELISA detects its analyte on a solid surface through an enzyme-linked reagent.

Assay [1] has as its system segmented filamentous bacteria (SFB). Nature of the assay: SFB levels by 16S rRNA qPCR of fecal pellets and SEM of ileum after antibiotics. The conditions noted are these: Taconic-derived mice; vancomycin 2.5 mg/kg or metronidazole 10 mg/kg orally every two days. As for the experimental part: For SFB-gavaging experiments, four fecal pellets of SFB mono-colonized mice were dissolved in 20 ml sterile PBS and filtered through a 100-μm cell strainer. 200 μl of fecal suspensions were gavaged via oral route into 8 to 9-week-old male cross-fostered mice. Control mice were gavaged with PBS. The SFB colonization was tested on day 7 following SFB-gavaging. For antibiotics treatments, Taconic-derived male mice were orally gavaged with vancomycin hydrochloride (Fisher) (2.5 mg/kg) or metronidazole (10 mg/kg) (Sigma Aldrich®) every two days, starting 21 days before behavioral test. Mouse fecal pellets were collected and stored at −80° C. before and after vancomycin and metronidazole treatments.
Bacterial genomic DNA was isolated from the fecal pellets of mice with phenol-chloroform extraction. qPCR was performed to quantify relative abundance of segmented filamentous bacteria (SFB). […] Data were analysed using Roche (Lightcylcler^R 96 SW1.1) Software and the relative quantification (fold) of SFB DNA was performed using the ΔΔCt method.
Terminal ileum tissues from mice (8-10 weeks old) were cut open and fixed with 2.5% glutaraldehyde in 0.1 M cacodylate buffer (pH 7.4) overnight and processed for standard scanning electron microscopy. All samples were analysed on a Hitachi S-4800 Type II Field Emission Scanning Electron Microscope™.
For orientation: Real-time PCR tracks product formation cycle by cycle.

Assay [2] concerns Cntnap2, Fmr1, and Shank3 mutant mice. Nature of the assay: Three-chamber social approach assay in monogenic mutant mice. The conditions noted are these: Cntnap2 and Fmr1 (monogenic) mutant mice, IL-17a 50 ng/side bilaterally into S1DZ, 4 hours. As for the experimental part:
All experiments were performed according to Guide for the Care and Use of Laboratory Animals and were approved by the National Institutes of Health and the Committee on Animal Care at Massachusetts Institute of Technology. C57BL/6 were purchased from Taconic Biosciences for generating PBS and MIA offspring. Vgat-Cre (028862) were purchased from Jackson Laboratories and inbred. For monogenic experiments, C57BL/6, Cntnap2 (017482), Fmr1 (003025), and Shank3 (017688) mice were purchased from Jackson Laboratories and inbred after colonizing with SFB from donor mice. IL-17Ra^fl/fl and IL-17RaKO were previously described^24,25. All mice were males aged 2-5 months, unless otherwise specified.
as §1, with “hrs. […]” for “hrs.”

“Also recorded” adds a separate entry of the source. Structures can show the parent of a compound that is named as a salt.

Regarding `C[N+]1([O-])CCN(C2=Nc3cc(Cl)ccc3Nc3ccccc32)CC1` [CNO], the “sociability in MIA Vgat-Cre mice” value with MIA offspring (Vgat-Cre MIA offspring without surgery, CNO 1.5 mg/kg i.p. or LPS) is recorded as “unaffected by CNO treatment”.
Consider `CN[C@H](CC(C)C)C(=O)N[C@H]1C(=O)N[C@@H](CC(N)=O)C(=O)N[C@H]2C(=O)N[C@H]3C(=O)N[C@H](C(=O)N[C@H](C(=O)O)c4cc(O)cc(O)c4-c4cc3ccc4O)[C@H](O)c3ccc(c(Cl)c3)Oc3cc2cc(c3O[C@@H]2O[C@H](CO)[C@@H](O)[C@H](O)[C@H]2O[C@H]2C[C@](C)(N)[C@H](O)[C@H](C)O2)Oc2ccc(cc2Cl)[C@H]1O` [vancomycin, vancomycin hydrochloride], for which the “LPS-induced reversal of the sociability phenotype after antibiotic pretreatment” value in the assay with MIA offspring (LPS-injected MIA offspring, antibiotic by oral gavage every two days from 21 days before test) was “prevented the reversal of the sociability phenotype”. The “LPS-induced increase in plasma and brain IL-17a and plasma IFNγ after antibiotic pretreatment” value in the assay on IL-17a, IFNγ, IL-6, TNFα was “suppressed the systemic increase in plasma and brain levels of IL-17a as well as the plasma levels of IFNγ”. Further, the “intestinal colonization by SFB (qPCR of fecal samples)” value in assay [1] is “severely reduced”.

B1: recombinant IL-17a: recombinant IL-17a protein (7956-ML/CF, R&D) administered bilaterally into S1DZ (protein)
chain: AAIIPQSSACPNTEAKDFLQNVKVNLKVFNSLGAKVSSRRPSDYLNRSTSPWTLHRNEDPDRYPSVIWEAQCRHQRCVNAEGKLDHHMNSVLIQQEILVLKREPESCPFTFRVEKMLVGVGCTCVASIVRQAA
With B1, the “sociability phenotype after IL-17a into S1DZ” value is “sufficient to promote sociability in monogenic mutant mice as well as in MIA offspring; also recorded: sufficient to rescue the sociability phenotypes of not only MIA offspring” in the assay on MIA offspring; “sufficient to rescue sociability deficits in MIA offspring; also recorded: rescues sociability deficits in both MIA offspring and monogenic mutant mice” in the assay on MIA offspring (listed as IL-17a); “rescued sociability deficits” in the assay with MIA offspring (listed as exogenous IL-17a); “sufficient to rescue the sociability phenotype of MIA offspring” with MIA offspring (listed as recombinant IL-17a protein); “sufficient to promote sociability in monogenic mutant mice” in assay [2]; “rescues sociability deficits in both MIA offspring and monogenic mutant mice” in assay [2] (listed as IL-17a).

Source of the values: patent publication US20220072101A1, “HARNESSING INFLAMMATION TO TREAT NEURODEVELOPMENTAL DISORDERS” (President and Fellows of Harvard College, priority 2019, published 2022).
